Laboratory results: article PMC5999314

Target: dengue poly-immunoglobulin G scaffold (D-PIGS), unfractionated, from ∆XF N. benthamiana
Assay: SPR; Biacore X100, affinity layout: 200 RU of D-PIGS (unfractionated) or hIgG1 captured on immobilised protein A (CM5 chip); CD16a or CD64 injected as analyte, 12.5 to 800 nM, contact 60 s, 50 uL/min, dissociation 200 s; two-state model for CD16a, 1:1 model for CD64

“recombinant human CD16a (from UniProt P08637 17-208) (receptor)” was tested. Which Kd did it give?
Its Kd is 24.8 nM.
